Results published in PMC11532958.

Columns and labels:
[1] = cell surface biotinylation, Western blot quantitation; conditions: glycan lost; control: wild type
[2] = domain-selective surface biotinylation of polarized cells; conditions: glycan lost; control: wild type

voltage-gated sodium channel β2 subunit: N42,66,74Q
localisation_or_trafficking [1]: decreases
other: apical versus basolateral polarity of surface protein [2]: no change
